The text below walks through data of the supplement of paper PMC7877785.

A short description of this data set: self-splicing fitness, log relative to wild type (ln ratio); higher = more splicing; Tetrahymena group I intron in knt gene, E. coli kanamycin selection, DiMSum; sequences stand for … in CUCUCU…GGAGGGAAAAGUUAUCAGGCAUGCACCUGGUAGCUAGUCUUUAAACCAAUAGAUUGCAUCGGUUUAAAAGGCAAGACCGUCAAAUUGCGGGAAAGGGGUCAACAGCCGUUCAGUACCAAGUCUCAGGGGAAACUUUGAGAUGGCCUUGCAAAGGGUAUGGUAAUAAGCUGACGGACAUGGUCCUAACCACGCAGCCAAGUCCUAAGUCAACAGAUCUUCUGUUGAUAUGGAUGCAGUUCACAGACUAAAUGUCGGUCGGGGAAGAUGUAUUCUUCUCAUAAGAUAUAGUCGGACCUCUCCUUAAUGGGAGCUAGCGGAUGAAGUGAUGCAACACUGGAGCCGCUGGGAACUAAUUUGUAUGCGAAAGUAUAUUGAUUAGUUUUGGAGUACUCGUGGUCG
In outline: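 Fitness was computed with DiMSum as the error-weighted combination of replicate fold changes, kanamycin versus none, each normalised to wild type. The library randomised all eight intron nucleotides of the P1ex region, with the intron placed in the knt kanamycin-resistance gene on pET-22b(+) in E. coli BL21(DE3). Six replicate transformations were grown overnight at 37°C or 30°C on LB agar with or without 25 μg/mL kanamycin, plus 100 μg/mL carbenicillin, 50 μM IPTG and 0.2% rhamnose. Pooled colonies were amplicon-sequenced on an Illumina HiSeq 2500.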

± gives the uncertainty stated by the source.

Consider CGGCAGCAAUAUUACGGGUC, for which the “self-splicing fitness (ln)” value is, setting by setting: (30 °C) -2.95 ± 0.21; (37 °C) -1.74 ± 0.22. The matching figures for GUUGAGCAAUAUUACGGGUG: -3.62 ± 0.38 and -2.85 ± 0.47.

Take CGACAGCAAUAUUACGUCCG: the “self-splicing fitness (ln)” value is -1.31 ± 0.12 (30 °C) and -1.04 ± 0.12 (37 °C). With GCAGAGCAAUAUUACGUCAG, the “self-splicing fitness (ln)” value (37 °C) was -2.97 ± 0.29. As for GUGAAGCAAUAUUACGCCGG, the “self-splicing fitness (ln)” value (30 °C) is -1.96 ± 0.45.

UUAUAGCAAUAUUACGUGCA: the “self-splicing fitness (ln)” value reads like this: (30 °C) -2.37 ± 0.23; (37 °C) -1.07 ± 0.2.

As to GCUAAGCAAUAUUACGUACC, the “self-splicing fitness (ln)” value (30 °C) was -0.573 ± 0.11 and the “self-splicing fitness (ln)” value (37 °C) came out at 0.246 ± 0.17. The matching figures for GAGCAGCAAUAUUACGCGUC: -3.39 ± 0.29 and -2.8 ± 0.3.

On to GAGCAGCAAUAUUACGGGCC, for which the “self-splicing fitness (ln)” value runs as follows: (30 °C) -2.94 ± 0.33; (37 °C) -1.21 ± 0.29. As for GUUCAGCAAUAUUACGUUUG, the “self-splicing fitness (ln)” value was -2.75 ± 0.15 (30 °C) and -1.22 ± 0.14 (37 °C). The corresponding values for GCACAGCAAUAUUACGACGG are -1.34 ± 0.098 and -0.832 ± 0.13. For the sequence GCUGAGCAAUAUUACGUUCG, the “self-splicing fitness (ln)” value (30 °C) is -2.34 ± 0.12 and the “self-splicing fitness (ln)” value (37 °C) was -1.17 ± 0.12. The corresponding values for UCUGAGCAAUAUUACGCAGG are -2.76 ± 0.32 and -1.29 ± 0.21. With UAUAAGCAAUAUUACGUGUC, the “self-splicing fitness (ln)” value reads like this: (30 °C) -3.33 ± 0.25; (37 °C) -1.5 ± 0.34.

As for AGCUAGCAAUAUUACGUCUU, the “self-splicing fitness (ln)” value (30 °C) was -0.517 ± 0.098 and the “self-splicing fitness (ln)” value (37 °C) is 0.46 ± 0.14. In the case of CACCAGCAAUAUUACGCUGA, the “self-splicing fitness (ln)” value is, setting by setting: (30 °C) -3.31 ± 0.17; (37 °C) -2.68 ± 0.15. With UCAGAGCAAUAUUACGUUGU, the “self-splicing fitness (ln)” value was -3.38 ± 0.2 (30 °C) and -3.51 ± 0.35 (37 °C). The corresponding values for UUUUAGCAAUAUUACGACGA are -0.357 ± 0.14 and 0.422 ± 0.19.

For the sequence GUGGAGCAAUAUUACGUGUG, the “self-splicing fitness (ln)” value was -2.65 ± 0.21 (30 °C) and -2.65 ± 0.23 (37 °C). CACUAGCAAUAUUACGAUUA: the “self-splicing fitness (ln)” value is, setting by setting: (30 °C) -1.21 ± 0.21; (37 °C) -2.44 ± 0.28. The matching figures for CAGCAGCAAUAUUACGGCGG: -1.93 ± 0.093 and -1.5 ± 0.16.

As for GUAAAGCAAUAUUACGUUCU, the “self-splicing fitness (ln)” value is -0.888 ± 0.05 (30 °C) and -0.135 ± 0.071 (37 °C). The corresponding values for AACCAGCAAUAUUACGGAUG are -0.77 ± 0.058 and -0.508 ± 0.072. The matching figures for GCCAAGCAAUAUUACGAGGC: -2.66 ± 0.16 and -1.93 ± 0.21. In the case of CUCGAGCAAUAUUACGACAG, the “self-splicing fitness (ln)” value was -1.76 ± 0.15 (30 °C) and -1.42 ± 0.21 (37 °C). The corresponding values for UCCCAGCAAUAUUACGGUUG are -2.97 ± 0.17 and -1.79 ± 0.15.

Take CAACAGCAAUAUUACGUGGG: the “self-splicing fitness (ln)” value runs as follows: (30 °C) -3.25 ± 0.096; (37 °C) -1.11 ± 0.075. As to ACUCAGCAAUAUUACGGAAA, the “self-splicing fitness (ln)” value is, setting by setting: (30 °C) -1.61 ± 0.14; (37 °C) -1.5 ± 0.16. The corresponding values for GUCGAGCAAUAUUACGAAGU are -1.31 ± 0.33 and -1.65 ± 0.4.

Consider GCACAGCAAUAUUACGGAGG, for which the “self-splicing fitness (ln)” value is -2 ± 0.099 (30 °C) and -0.502 ± 0.11 (37 °C). The matching figures for GCCGAGCAAUAUUACGCCUU: -3.44 ± 0.27 and -2 ± 0.36. As to GUCAAGCAAUAUUACGAACU, the “self-splicing fitness (ln)” value runs as follows: (30 °C) -2.42 ± 0.11; (37 °C) -1.38 ± 0.12. As to UGUAAGCAAUAUUACGGCCG, the “self-splicing fitness (ln)” value is, setting by setting: (30 °C) -0.494 ± 0.17; (37 °C) -0.516 ± 0.25.

Take CGUAAGCAAUAUUACGGGUA: the “self-splicing fitness (ln)” value reads like this: (30 °C) -2.63 ± 0.15; (37 °C) -2.48 ± 0.21. As for ACUGAGCAAUAUUACGCGAA, the “self-splicing fitness (ln)” value is -3.01 ± 0.33 (30 °C) and -2.77 ± 0.36 (37 °C). The matching figures for UAGCAGCAAUAUUACGCCGA: -0.884 ± 0.14 and 0.482 ± 0.14. Take GAUUAGCAAUAUUACGUAUA: the “self-splicing fitness (ln)” value runs as follows: (30 °C) -2.65 ± 0.22; (37 °C) -0.643 ± 0.19.

With CAUGAGCAAUAUUACGUGCU, the “self-splicing fitness (ln)” value runs as follows: (30 °C) -3.6 ± 0.38; (37 °C) -2.39 ± 0.32.
